Data taken from patent publication US20260098080A1, “A MODIFIED PROTEIN SCAFFOLD AND USE THEREOF” (EVOLVERITAS BIOTECHNOLÓGIAI KORLÁTOLT FELELOSSÉGU TÁRSASÁG, priority 2022, published 2026).
Changes are numbered by the printed parent chain. Values joined by “and” are separate entries in the source; they are usually repeats but may differ in a detail not shown here. Identical values can stand only once. Bridges are numbered along the chain shown (N, C = ends). Where no end group is shown, it is not given here.

Experiments:
[1] = tested on: extrinsic pathway; experiment: Human blood coagulation: prothrombin time; type: biochemical; conditions: human plasma, duplicates 21/1 and 21/2
Protocol: (§1) The effect of the proteins of the present invention on the blood coagulation process was tested in three standard assays, the thrombin time, testing any direct effects on thrombin; prothrombin time, testing any effects on the extrinsic pathway; and the activated partial thromboplastin time, testing any effects on the intrinsic pathway.
(§2) Blood was collected from a healthy individual by vein puncture after informed consent. The blood was treated with sodium-citrate (3.8% wt/vol) and centrifuged. All three assays were performed on the automated instrument Sysmex CA-1500 (Sysmex) with Innovin reagent (Dale Behring, Marburg, Germany).
(§3) The proteins of the present invention were applied in a twofold serial dilution in 1.4% wt/vol sodium bicarbonate (vehicle) with the highest final concentration being 10 μM (3.4 μM for EVO24 (SEQ ID NO: 15)) and the lowest final concentration being 156 nM (53 nM for EVO24 (SEQ ID NO: 15)).
(§4) All measurements were done in duplicates and a vehicle control was also tested. The highest concentration value is about 5 orders of magnitudes higher than the KD values of the four proteins of the present invention on human MASP-2.

[2] = tested on: intrinsic pathway; experiment: Human blood coagulation: activated partial thromboplastin time; type: biochemical; conditions: human plasma, duplicates 21/1 and 21/2
Protocol: as §1, §2, §3, §4

[3] = tested on: thrombin; experiment: Human blood coagulation: thrombin time; type: biochemical; conditions: human plasma, duplicates 21/1 and 21/2
Protocol: as §1, §2, §3, §4

[4] = molecular target: T1, rat MASP-2cf CCP1-CCP2-SP (rat, UniProt Q9JJS8 298-685); experiment: enzyme inhibition, tight-binding fit
T1 construct: range 298-685; Mw 42309 Da; also called rat MASP-2 catalytic fragment
T1 sequence (Q9JJS8 other isoform, or with tags, fused parts or gaps limits assumed, form in doubt): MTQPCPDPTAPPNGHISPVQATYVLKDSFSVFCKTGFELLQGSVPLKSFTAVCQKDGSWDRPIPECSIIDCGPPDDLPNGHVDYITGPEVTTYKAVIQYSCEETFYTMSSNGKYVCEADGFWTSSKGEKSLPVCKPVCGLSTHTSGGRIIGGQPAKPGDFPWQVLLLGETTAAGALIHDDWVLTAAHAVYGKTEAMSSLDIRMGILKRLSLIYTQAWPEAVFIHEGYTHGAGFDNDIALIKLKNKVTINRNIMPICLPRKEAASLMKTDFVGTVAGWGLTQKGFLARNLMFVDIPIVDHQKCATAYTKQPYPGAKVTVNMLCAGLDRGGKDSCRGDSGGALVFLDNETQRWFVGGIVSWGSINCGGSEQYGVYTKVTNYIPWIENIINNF

[5] = molecular target: T2, human MASP-2cf CCP1-CCP2-SP (human, UniProt O00187 298-686, limits assumed); experiment: enzyme inhibition, tight-binding fit
T2 construct: domain: CCP1-CCP2-SP; also called human MASP-2 catalytic fragment
T2 sequence (O00187 298-686 limits assumed): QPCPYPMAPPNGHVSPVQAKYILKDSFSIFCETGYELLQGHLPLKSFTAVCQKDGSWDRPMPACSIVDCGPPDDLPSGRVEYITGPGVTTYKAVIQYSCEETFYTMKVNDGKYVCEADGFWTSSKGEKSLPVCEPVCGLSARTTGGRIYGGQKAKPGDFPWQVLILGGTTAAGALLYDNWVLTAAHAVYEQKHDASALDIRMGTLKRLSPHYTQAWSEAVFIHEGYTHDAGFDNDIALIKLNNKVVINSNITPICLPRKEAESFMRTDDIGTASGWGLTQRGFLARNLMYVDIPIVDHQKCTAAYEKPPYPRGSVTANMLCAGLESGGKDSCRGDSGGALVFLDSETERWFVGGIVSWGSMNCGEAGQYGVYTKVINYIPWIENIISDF

[6] = molecular target: T3, human MASP-2 (in normal human serum) (human, UniProt O00187 16-686); experiment: cell-based or functional assay
T3 sequence (O00187 16-686 limits assumed): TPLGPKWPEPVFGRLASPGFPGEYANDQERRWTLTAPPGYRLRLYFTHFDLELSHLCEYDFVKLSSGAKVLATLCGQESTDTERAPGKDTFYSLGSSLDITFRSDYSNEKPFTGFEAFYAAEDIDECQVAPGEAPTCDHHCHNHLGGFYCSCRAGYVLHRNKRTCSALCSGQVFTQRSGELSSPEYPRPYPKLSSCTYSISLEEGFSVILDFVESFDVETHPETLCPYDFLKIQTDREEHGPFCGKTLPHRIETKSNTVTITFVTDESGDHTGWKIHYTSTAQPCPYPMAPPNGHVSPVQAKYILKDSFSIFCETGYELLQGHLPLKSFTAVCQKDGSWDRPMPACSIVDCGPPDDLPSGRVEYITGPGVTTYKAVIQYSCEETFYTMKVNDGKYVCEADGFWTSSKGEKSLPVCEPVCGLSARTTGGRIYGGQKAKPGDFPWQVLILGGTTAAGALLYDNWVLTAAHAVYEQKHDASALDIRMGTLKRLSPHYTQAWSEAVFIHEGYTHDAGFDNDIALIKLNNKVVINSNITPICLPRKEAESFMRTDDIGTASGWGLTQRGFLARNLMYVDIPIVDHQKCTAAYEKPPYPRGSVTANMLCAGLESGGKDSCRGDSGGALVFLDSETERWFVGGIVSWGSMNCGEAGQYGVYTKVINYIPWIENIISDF

[7] = molecular target: rat MASP-2 (in rat serum) (rat, UniProt Q9JJS8 20-685); experiment: cell-based or functional assay
rat MASP-2 (in rat serum), sequence (Q9JJS8 20-685 limits assumed): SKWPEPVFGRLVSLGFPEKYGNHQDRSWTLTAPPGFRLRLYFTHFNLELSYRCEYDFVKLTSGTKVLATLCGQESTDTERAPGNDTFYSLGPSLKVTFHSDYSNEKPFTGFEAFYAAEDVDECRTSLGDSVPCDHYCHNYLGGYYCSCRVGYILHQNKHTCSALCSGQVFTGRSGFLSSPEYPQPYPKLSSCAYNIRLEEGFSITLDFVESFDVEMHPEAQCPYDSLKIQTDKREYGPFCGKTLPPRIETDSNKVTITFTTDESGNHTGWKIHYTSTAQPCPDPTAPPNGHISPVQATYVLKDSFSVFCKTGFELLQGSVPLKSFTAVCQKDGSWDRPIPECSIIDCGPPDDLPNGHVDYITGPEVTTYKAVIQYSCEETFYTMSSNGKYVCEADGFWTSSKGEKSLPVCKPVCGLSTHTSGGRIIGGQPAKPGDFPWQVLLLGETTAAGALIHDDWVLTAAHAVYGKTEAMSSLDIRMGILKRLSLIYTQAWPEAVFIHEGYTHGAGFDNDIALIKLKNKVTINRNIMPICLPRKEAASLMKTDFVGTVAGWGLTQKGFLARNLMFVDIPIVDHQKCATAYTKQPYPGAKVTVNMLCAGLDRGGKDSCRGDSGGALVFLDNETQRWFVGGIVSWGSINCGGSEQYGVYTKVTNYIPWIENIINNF

[8] = molecular target: T1, rat MASP-2cf CCP1-CCP2-SP; experiment: SPR, target immobilised
[9] = molecular target: T2, human MASP-2cf CCP1-CCP2-SP; experiment: SPR, target immobilised
[10] = molecular target: T3, human MASP-2 (in normal human serum); experiment: cell-based or functional assay; remark: listed apart in the source

Molecule: KPDFCFLENDPGPCRALKRRYFYNNQTKQCERFGYGGCLGNMNNFVTLEECKNICEDG (disulfide 5-55, 14-38, 30-51) [EVO21]
- PI ([1]; 0.15625 μM): 10.2 and 10.0
- PI ([1]; 0.3125 μM): 10.1 and 10.0
- PI ([1]; 0.625 μM): 10.1 and 10.0
- PI ([1]; 1.25 μM): 10.2 and 10.1
- PI ([1]; 2.5 μM): 10.3 and 10.2
- PI ([1]; 5 μM): 10.6 and 10.3
- PI ([1]; 10 μM): 11.4 and 11.9
- APTT ([2]; 0.15625 μM): 32.9 and 32.3
- APTT ([2]; 0.3125 μM): 33.6 and 32.8
- APTT ([2]; 0.625 μM): 34.3 and 33.6
- APTT ([2]; 1.25 μM): 37.0 and 34.8
- APTT ([2]; 2.5 μM): 40.0 and 37.1
- APTT ([2]; 5 μM): 45.6 and 40.1
- APTT ([2]; 10 μM): 58.7 and 67.6
- TT ([3]; 0.15625 μM): 17.1 and 17.0
- TT ([3]; 0.3125 μM): 16.9 and 17.0
- TT ([3]; 0.625 μM): 16.8 and 16.9
- TT ([3]; 1.25 μM): 16.9 and 17.1
- TT ([3]; 2.5 μM): 16.4 and 17.4
- TT ([3]; 5 μM): 16.5 and 17.4
- TT ([3]; 10 μM): 16.8 and 16.4

B1: EVO22 (designed binder)
chain: KPDFCFLENDPGPCRALKRRYFYNNQTKQCERFYYGGCLGNMNNFVTLEECKNICEDG
modifications: not fully specified; cysteine pairing not given here
notes: Modified TFPI-D2 Kunitz domain; made as m1
- Ki [4]: 0.31 nM
- Ki [5]: 0.15 nM
- IC50, lectin pathway C4 deposition, human serum [6]: 4.1 nM
- Relative potency, lectin pathway, human serum [6]: 33.4 fold vs EVO2
- IC50, lectin pathway C4 deposition, rat serum [7]: 9.9 nM
- Relative potency, lectin pathway, rat serum [7]: 10.8 fold vs EVO2
- Kd [8]: 0.229 nM
- Relative affinity [8]: 15.9 fold vs EVO2
- koff [8]: 0.000256 s⁻¹
- kon [8]: 1.12e+06 M⁻¹ s⁻¹
- Kd [9]: 0.137 nM
- Relative affinity [9]: 13.1 fold vs EVO2
- koff [9]: 0.000314 s⁻¹
- kon [9]: 2.3e+06 M⁻¹ s⁻¹

B2: EVO2 (designed binder)
chain: B1 chain with N9E, L17V, Y34K, V46E
modifications: not fully specified; ends and bridges not checked
notes: Modified Kunitz domain TFPI-D2 of human TFPI-1; recombinant from E. coli, freed from a His6-S100A4 fusion by TEV protease; also called TFMI-2b
- Ki [4]: 0.24 nM
- Ki [5]: 0.65 nM
- IC50, lectin pathway C4 deposition, human serum [6]: 138 nM
- Relative potency, lectin pathway, human serum [6]: 1 fold vs EVO2
- IC50, lectin pathway C4 deposition, rat serum [7]: 106 nM
- Relative potency, lectin pathway, rat serum [7]: 1 fold vs EVO2
- Kd [8]: 3.63 nM
- Relative affinity [8]: 1 fold vs EVO2
- koff [8]: 0.00107 s⁻¹
- kon [8]: 310000 M⁻¹ s⁻¹
- Kd [9]: 1.79 nM
- Relative affinity [9]: 1 fold vs EVO2
- koff [9]: 0.0014 s⁻¹
- kon [9]: 809000 M⁻¹ s⁻¹

B3: EVO21a (designed binder)
chain: B1 chain with L17V, Y34G
modifications: not fully specified; cysteine pairing not given here
notes: as for B1
- IC50, lectin pathway C4 deposition, human serum [6]: 21.4 nM
- Relative potency, lectin pathway, human serum [6]: 6.5 fold vs EVO2
- IC50, lectin pathway C4 deposition, rat serum [7]: 39.4 nM
- Relative potency, lectin pathway, rat serum [7]: 2.7 fold vs EVO2
- Kd [8]: 2.02 nM
- Relative affinity [8]: 1.8 fold vs EVO2
- koff [8]: 0.00104 s⁻¹
- kon [8]: 515000 M⁻¹ s⁻¹
- Kd [9]: 0.723 nM
- Relative affinity [9]: 2.5 fold vs EVO2
- koff [9]: 0.000839 s⁻¹
- kon [9]: 1.16e+06 M⁻¹ s⁻¹
- Relative potency (relative human lectin pathway inhibitory efficiency compared to EVO2) [10]: 6.4 fold relative to EVO2

B4: EVO21c (designed binder)
chain: B1 chain with N9E, Y34G, L39F
modifications: not fully specified; cysteine pairing not given here
notes: as for B1
- Ki [4]: 0.007 nM
- Ki [5]: 0.065 nM
- IC50, lectin pathway C4 deposition, human serum [6]: 6.2 nM
- Relative potency, lectin pathway, human serum [6]: 22.4 fold vs EVO2
- IC50, lectin pathway C4 deposition, rat serum [7]: 12.4 nM
- Relative potency, lectin pathway, rat serum [7]: 8.5 fold vs EVO2
- Relative potency (relative human lectin pathway inhibitory efficiency compared to EVO2) [10]: 22.3 fold relative to EVO2

B5: EVO25 (designed binder)
chain: B1 chain with L39F, V46E
modifications: not fully specified; cysteine pairing not given here
notes: as for B1
- Ki [4]: 0.9 nM
- IC50, lectin pathway C4 deposition, human serum [6]: 5.6 nM
- Relative potency, lectin pathway, human serum [6]: 24.5 fold vs EVO2
- IC50, lectin pathway C4 deposition, rat serum [7]: 15 nM
- Relative potency, lectin pathway, rat serum [7]: 7.1 fold vs EVO2
- Kd [8]: 0.787 nM
- Relative affinity [8]: 4.6 fold vs EVO2
- koff [8]: 0.000826 s⁻¹
- kon [8]: 1.05e+06 M⁻¹ s⁻¹
- Kd [9]: 0.203 nM
- Relative affinity [9]: 8.8 fold vs EVO2
- koff [9]: 0.000438 s⁻¹
- kon [9]: 2.16e+06 M⁻¹ s⁻¹

B6: EVO221 (designed binder)
chain: B1 chain with P13V, L17A, K18A, R19V
modifications: not fully specified; cysteine pairing not given here
notes: as for B1
- Ki [4]: 0.1 nM
- Ki [5]: 0.19 nM
- IC50, lectin pathway C4 deposition, human serum [6]: 12.7 nM
- Relative potency, lectin pathway, human serum [6]: 10.9 fold vs EVO2
- IC50, lectin pathway C4 deposition, rat serum [7]: 11 nM
- Relative potency, lectin pathway, rat serum [7]: 9.7 fold vs EVO2
- Kd [8]: 0.17 nM
- Relative affinity [8]: 21.4 fold vs EVO2
- koff [8]: 0.000113 s⁻¹
- kon [8]: 664000 M⁻¹ s⁻¹
- Kd [9]: 0.127 nM
- Relative affinity [9]: 14.1 fold vs EVO2
- koff [9]: 0.000131 s⁻¹
- kon [9]: 1.03e+06 M⁻¹ s⁻¹
- Relative potency (relative human lectin pathway inhibitory efficiency compared to EVO2) [10]: 10.8 fold relative to EVO2

B7: EVO222 (designed binder)
chain: B1 chain with P13L, L17A, K18A, R19V
modifications: not fully specified; cysteine pairing not given here
notes: as for B1
- Ki [4]: 0.27 nM
- Ki [5]: 0.1 nM
- IC50, lectin pathway C4 deposition, human serum [6]: 9.8 nM
- Relative potency, lectin pathway, human serum [6]: 14.1 fold vs EVO2
- IC50, lectin pathway C4 deposition, rat serum [7]: 24.2 nM
- Relative potency, lectin pathway, rat serum [7]: 8.9 fold vs EVO2
- Kd [8]: 0.566 nM
- Relative affinity [8]: 6.4 fold vs EVO2
- koff [8]: 0.000262 s⁻¹
- kon [8]: 463000 M⁻¹ s⁻¹
- Relative affinity [9]: 40 fold vs EVO2
- koff [9]: 4.26e-05 s⁻¹
- kon [9]: 954000 M⁻¹ s⁻¹

B8: EVO223 (designed binder)
chain: B1 chain with L17A, K18A, R19V
notes: as for B1
- Ki [4]: 0.09 nM
- IC50, lectin pathway C4 deposition, human serum [6]: 9.9 nM
- Relative potency, lectin pathway, human serum [6]: 14 fold vs EVO2
- IC50, lectin pathway C4 deposition, rat serum [7]: 12 nM
- Relative potency, lectin pathway, rat serum [7]: 8.9 fold vs EVO2
- Kd [8]: 0.108 nM
- Relative affinity [8]: 33.6 fold vs EVO2
- koff [8]: 7.53e-05 s⁻¹
- kon [8]: 696000 M⁻¹ s⁻¹
- Kd [9]: 0.054 nM
- Relative affinity [9]: 33.1 fold vs EVO2
- koff [9]: 4.77e-05 s⁻¹
- kon [9]: 882000 M⁻¹ s⁻¹

B9: EVO224 (designed binder)
chain: B1 chain with P13V, K18A, R19V
modifications: not fully specified; cysteine pairing not given here
notes: as for B1
- Ki [4]: 0.14 nM
- Ki [5]: 1.13 nM
- IC50, lectin pathway C4 deposition, human serum [6]: 30.9 nM
- Relative potency, lectin pathway, human serum [6]: 4.5 fold vs EVO2
- IC50, lectin pathway C4 deposition, rat serum [7]: 29.6 nM
- Relative potency, lectin pathway, rat serum [7]: 3.6 fold vs EVO2
- Kd [8]: 0.219 nM
- Relative affinity [8]: 16.6 fold vs EVO2
- koff [8]: 0.000184 s⁻¹
- kon [8]: 839000 M⁻¹ s⁻¹
- Kd [9]: 0.561 nM
- Relative affinity [9]: 3.2 fold vs EVO2
- koff [9]: 0.000617 s⁻¹
- kon [9]: 1.1e+06 M⁻¹ s⁻¹

B10: EVO21b (designed binder)
chain: B1 chain with N9E, Y34G
modifications: not fully specified; cysteine pairing not given here
- IC50, lectin pathway C4 deposition, human serum [6]: 4.3 nM
- Relative potency, lectin pathway, human serum [6]: 31.9 fold vs EVO2
- IC50, lectin pathway C4 deposition, rat serum [7]: 7.2 nM
- Relative potency, lectin pathway, rat serum [7]: 14.7 fold vs EVO2
- Relative potency (relative human lectin pathway inhibitory efficiency compared to EVO2) [10]: 32.1 fold relative to EVO2

B11: EVO22d (designed binder)
chain: B1 chain with N9E, L17A, L39F
- IC50, lectin pathway C4 deposition, human serum [6]: 5.6 nM
- Relative potency, lectin pathway, human serum [6]: 24.7 fold vs EVO2
- IC50, lectin pathway C4 deposition, rat serum [7]: 10.4 nM
- Relative potency, lectin pathway, rat serum [7]: 10.2 fold vs EVO2
- Relative potency (relative human lectin pathway inhibitory efficiency compared to EVO2) [10]: 24.6 fold relative to EVO2

B12: EVO214a (designed binder)
chain: B1 chain with N9E, R19L, Y34G, L39F
- IC50, lectin pathway C4 deposition, human serum [6]: 10.2 nM
- Relative potency, lectin pathway, human serum [6]: 13.6 fold vs EVO2
- IC50, lectin pathway C4 deposition, rat serum [7]: 20.3 nM
- Relative potency, lectin pathway, rat serum [7]: 5.2 fold vs EVO2
- Relative potency (relative human lectin pathway inhibitory efficiency compared to EVO2) [10]: 15.2 fold relative to EVO2

B13: EVO211a (designed binder)
chain: B1 chain with N9E, P13W, Y34G, L39F
- IC50, lectin pathway C4 deposition, human serum [6]: 9.1 nM
- Relative potency, lectin pathway, human serum [6]: 15.2 fold vs EVO2
- IC50, lectin pathway C4 deposition, rat serum [7]: 30.6 nM
- Relative potency, lectin pathway, rat serum [7]: 3.5 fold vs EVO2
- Relative potency (relative human lectin pathway inhibitory efficiency compared to EVO2) [10]: 13.5 fold relative to EVO2
